Experimental data reported in patent publication US20090280138A1 (OXFORD BIOMEDICA UK, published 2009).

Key:
[1] = biological target: T1, MHC class I molecule HLA-A*0201 (iTopia plate-bound monomer) (biotin (bound to streptavidin-coated plate)); assay: iTopia off-rate assay, 37 C; fit R^2 0.79
T1 construct: also called A2
Procedure: (§1) The 9 mers were tested for Peptide Binding, Off Rate and Affinity using iTopia Epitope Discovery System in accordance with the manufacturer's instructions. Briefly, 96 well microtitre plates coated with MHC molecules representing different MHC alleles are used to identify candidate peptides. […] Determinations are performed in duplicate using an ELISA plate reader and included allele specific positive controls.
(§2) A one-phase exponential decay curve, with a plateau given equal to 0, was generated using GraphPad Prism® software, which calculated the t1/2 and goodness-of-fit, as measured by r², for each peptide.

[2] = biological target: T2, MHC class I molecule HLA-B*0702 (iTopia plate-bound monomer) (biotin (bound to streptavidin-coated plate)); assay: iTopia off-rate assay, 37 C; fit R^2 0.1
T2 construct: Commercial iTopia system; also called B7
Procedure: as §1, §2

[3] = biological target: T1, MHC class I molecule HLA-A*0201 (iTopia …); assay: iTopia off-rate assay, 37 C; fit R^2 0.46
Procedure: as §1, §2

[4] = biological target: T1, MHC class I molecule HLA-A*0201 (iTopia …); assay: iTopia off-rate assay, 37 C; fit R^2 0.98
Procedure: as §1, §2

[5] = biological target: T2, MHC class I molecule HLA-B*0702 (iTopia …); assay: iTopia off-rate assay, 37 C; fit R^2 0.91
Procedure: as §1, §2

[6] = biological target: T1, MHC class I molecule HLA-A*0201 (iTopia …); assay: iTopia off-rate assay, 37 C; fit R^2 0.63
Procedure: as §1, §2

[7] = biological target: T2, MHC class I molecule HLA-B*0702 (iTopia …); assay: iTopia off-rate assay, 37 C; fit R^2 0.84
Procedure: as §1, §2

[8] = biological target: T1, MHC class I molecule HLA-A*0201 (iTopia …); assay: iTopia off-rate assay, 37 C; fit R^2 0.66
Procedure: as §1, §2

[9] = biological target: T2, MHC class I molecule HLA-B*0702 (iTopia …); assay: iTopia off-rate assay, 37 C; fit R^2 0.22
Procedure: as §1, §2

[10] = biological target: T1, MHC class I molecule HLA-A*0201 (iTopia …); assay: iTopia off-rate assay, 37 C; fit R^2 0.74
Procedure: as §1, §2

[11] = biological target: T3, MHC class I molecule HLA-A*0101 (iTopia plate-bound monomer) (biotin (bound to streptavidin-coated plate)); assay: iTopia off-rate assay, 37 C; fit R^2 0.97
T3 construct: also called A1
Procedure: as §1, §2

[12] = biological target: T4, MHC class I molecule HLA-A*0301 (iTopia plate-bound monomer) (biotin (bound to streptavidin-coated plate)); assay: iTopia off-rate assay, 37 C; fit R^2 0.88
T4 construct: also called A3
Procedure: as §1, §2

[13] = biological target: T2, MHC class I molecule HLA-B*0702 (iTopia …); assay: iTopia off-rate assay, 37 C; fit R^2 0.23
Procedure: as §1, §2

[14] = biological target: T1, MHC class I molecule HLA-A*0201 (iTopia …); assay: iTopia off-rate assay, 37 C; fit R^2 0.65
Procedure: as §1, §2

[15] = biological target: T1, MHC class I molecule HLA-A*0201 (iTopia …); assay: iTopia off-rate assay, 37 C; fit R^2 0.91
Procedure: as §1, §2

[16] = biological target: T3, MHC class I molecule HLA-A*0101 (iTopia …); assay: iTopia off-rate assay, 37 C; fit R^2 0.87
Procedure: as §1, §2

[17] = biological target: T2, MHC class I molecule HLA-B*0702 (iTopia …); assay: iTopia off-rate assay, 37 C; fit R^2 0.15
Procedure: as §1, §2

[18] = biological target: T2, MHC class I molecule HLA-B*0702 (iTopia …); assay: iTopia off-rate assay, 37 C; fit R^2 0.67
Procedure: as §1, §2

[19] = biological target: T1, MHC class I molecule HLA-A*0201 (iTopia …); assay: iTopia off-rate assay, 37 C; fit R^2 0.87
Procedure: as §1, §2

[20] = biological target: T2, MHC class I molecule HLA-B*0702 (iTopia …); assay: iTopia off-rate assay, 37 C; fit R^2 0.02
Procedure: as §1, §2

[21] = biological target: T1, MHC class I molecule HLA-A*0201 (iTopia …); assay: iTopia off-rate assay, 37 C; fit R^2 0.67
Procedure: as §1, §2

[22] = biological target: T1, MHC class I molecule HLA-A*0201 (iTopia …); assay: iTopia off-rate assay, 37 C; fit R^2 0.68
Procedure: as §1, §2

[23] = biological target: T2, MHC class I molecule HLA-B*0702 (iTopia …); assay: iTopia off-rate assay, 37 C; fit R^2 0.36
Procedure: as §1, §2

[24] = biological target: T4, MHC class I molecule HLA-A*0301 (iTopia …); assay: iTopia off-rate assay, 37 C; fit R^2 0.01
Procedure: as §1, §2

[25] = biological target: T2, MHC class I molecule HLA-B*0702 (iTopia …); assay: iTopia off-rate assay, 37 C; fit R^2 0.42
Procedure: as §1, §2

[26] = biological target: T1, MHC class I molecule HLA-A*0201 (iTopia …); assay: iTopia off-rate assay, 37 C; fit R^2 0.33
Procedure: as §1, §2

[27] = biological target: T3, MHC class I molecule HLA-A*0101 (iTopia …); assay: iTopia off-rate assay, 37 C; fit R^2 0.25
Procedure: as §1, §2

[28] = biological target: T2, MHC class I molecule HLA-B*0702 (iTopia …); assay: iTopia off-rate assay, 37 C; fit R^2 0.26
Procedure: as §1, §2

[29] = biological target: T4, MHC class I molecule HLA-A*0301 (iTopia …); assay: iTopia off-rate assay, 37 C; fit R^2 0.58
Procedure: as §1, §2

[30] = biological target: T1, MHC class I molecule HLA-A*0201 (iTopia …); assay: iTopia off-rate assay, 37 C; fit R^2 0.9
Procedure: as §1, §2

[31] = biological target: T2, MHC class I molecule HLA-B*0702 (iTopia …); assay: iTopia off-rate assay, 37 C; fit R^2 0.11
Procedure: as §1, §2

[32] = biological target: T1, MHC class I molecule HLA-A*0201 (iTopia …); assay: iTopia off-rate assay, 37 C; fit R^2 0.49
Procedure: as §1, §2

[33] = biological target: T4, MHC class I molecule HLA-A*0301 (iTopia …); assay: iTopia off-rate assay, 37 C; fit R^2 0.61
Procedure: as §1, §2

[34] = biological target: T2, MHC class I molecule HLA-B*0702 (iTopia …); assay: iTopia off-rate assay, 37 C; fit R^2 0.68
Procedure: as §1, §2

[35] = biological target: T1, MHC class I molecule HLA-A*0201 (iTopia …); assay: iTopia off-rate assay, 37 C; fit R^2 0.95
Procedure: as §1, §2

[36] = biological target: T1, MHC class I molecule HLA-A*0201 (iTopia …); assay: iTopia off-rate assay, 37 C; fit R^2 0.89
Procedure: as §1, §2

[37] = biological target: T2, MHC class I molecule HLA-B*0702 (iTopia …); assay: iTopia off-rate assay, 37 C; fit R^2 0.88
Procedure: as §1, §2

[38] = biological target: T1, MHC class I molecule HLA-A*0201 (iTopia …); assay: iTopia off-rate assay, 37 C; fit R^2 0.59
Procedure: as §1, §2

[39] = biological target: T2, MHC class I molecule HLA-B*0702 (iTopia …); assay: iTopia off-rate assay, 37 C; fit R^2 0.66
Procedure: as §1, §2

[40] = biological target: T4, MHC class I molecule HLA-A*0301 (iTopia …); assay: iTopia off-rate assay, 37 C; fit R^2 0.95
Procedure: as §1, §2

[41] = biological target: T3, MHC class I molecule HLA-A*0101 (iTopia …); assay: iTopia off-rate assay, 37 C; fit R^2 0.88
Procedure: as §1, §2

[42] = biological target: T4, MHC class I molecule HLA-A*0301 (iTopia …); assay: iTopia off-rate assay, 37 C; fit R^2 0.94
Procedure: as §1, §2

[43] = biological target: T2, MHC class I molecule HLA-B*0702 (iTopia …); assay: iTopia off-rate assay, 37 C; fit R^2 0.75
Procedure: as §1, §2

Q: With AALLAGRAL [5T4 9-mer peptide 101 AALLAGRAL] as the binder, how does the t½ half life [1] read?
A: 1.9 h

Q: And the t½ half life [2]?
A: 1.6 h

Q: ILNHIVPPE (also called Peptide No 90) [5T4 9-mer peptide 90 ILNHIVPPE] was tested. Which t½ half life [3] did it give?
A: 13 h

Q: For GAFARRPPL (also called Peptide No 55) [5T4 9-mer peptide 55 GAFARRPPL], which t½ half life [4] is on record?
A: 1.9 h

Q: What about the t½ half life [5] of the same binder?
A: 1.3 h

Q: What does the source list for LAVLPAGAF (also called Peptide No 52) [5T4 9-mer peptide 52 LAVLPAGAF]?
A: t½ half life [6]: 3.6 h; t½ half life [7]: 18 min

Q: Which t½ half life [8] does the source give for GGCSRGPAA (also called Peptide No 2) [5T4 9-mer peptide 2 GGCSRGPAA] here?
A: 30 min

Q: What about the t½ half life [9] of the same binder?
A: 1.3 h

Q: What does the source list for HMEGYHYRY (also called Peptide No 198) [5T4 9-mer peptide 198 HMEGYHYRY]?
A: t½ half life [10]: 6.3 h; t½ half life [11]: 1.3 h; t½ half life [12]: 1.7 h

Q: For SPTSSASSF (also called Peptide No 17) [5T4 9-mer peptide 17 SPTSSASSF], which t½ half life [13] is on record?
A: 2.6 h

Q: For SSFSSSAPF (also called Peptide No 20) [5T4 9-mer peptide 20 SSFSSSAPF], which t½ half life [14] is on record?
A: 24 min

Q: With VPTDLPAYV (also called Peptide No 43) [5T4 9-mer peptide 43 VPTDLPAYV] as the binder, how does the t½ half life [15] read?
A: 1.1 h

Q: What about the t½ half life [16] of the same binder?
A: 1.8 h

Q: DGRLRLARL (also called Peptide No 7) [5T4 9-mer peptide 7 DGRLRLARL] was tested. Which t½ half life [17] did it give?
A: 2.6 h

Q: Which t½ half life [18] does the source give for ASVSAPSPL (also called Peptide No 84) [5T4 9-mer peptide 84 ASVSAPSPL] here?
A: 6 min

Q: And the t½ half life [19]?
A: 24 min

Q: How did the t½ half life [20] turn out when APFLASAVS (also called Peptide No 23) [5T4 9-mer peptide 23 APFLASAVS] was run?
A: 2.6 h

Q: What about the t½ half life [21] of the same binder?
A: 1.6 h

Q: Which t½ half life [22] does the source give for RDACRDHME (also called Peptide No 195) [5T4 9-mer peptide 195 RDACRDHME] here?
A: 3 h

Q: How did the t½ half life [23] turn out when ADPRLTNLS (also called Peptide No 204) [5T4 9-mer peptide 204 ADPRLTNLS] was run?
A: 3.1 h

Q: For VVAALLAGR (also called Peptide No 100) [5T4 9-mer peptide 100 VVAALLAGR], which t½ half life [24] is on record?
A: 8.1 h

Q: How did the t½ half life [25] turn out when LAELAALNL (also called Peptide No 59) [5T4 9-mer peptide 59 LAELAALNL] was run?
A: 3.2 h

Q: What about the t½ half life [26] of the same binder?
A: 13.1 h

Q: What about the t½ half life [27] of the same binder?
A: 2.5 h

Q: How did the t½ half life [28] turn out when APSPLVELI (also called Peptide No 86) [5T4 9-mer peptide 86 APSPLVELI] was run?
A: 1.6 h

Q: How did the t½ half life [29] turn out when VLPAGAFAR (also called Peptide No 53) [5T4 9-mer peptide 53 VLPAGAFAR] was run?
A: 30 min

Q: And the t½ half life [30]?
A: 2.2 h

Q: With PPLAELAAL (also called Peptide No 58) [5T4 9-mer peptide 58 PPLAELAAL] as the binder, how does the t½ half life [31] read?
A: 3 h

Q: What about the t½ half life [32] of the same binder?
A: 4.6 h

Q: RALQGLRRL [5T4 9-mer peptide 104 RALQGLRRL] was tested. Which t½ half life [33] did it give?
A: 24 min

Q: What about the t½ half life [34] of the same binder?
A: 6 min

Q: And the t½ half life [35]?
A: 36 min

Q: With LPSLRQLDL (also called Peptide No 71) [5T4 9-mer peptide 71 LPSLRQLDL] as the binder, how does the t½ half life [36] read?
A: 1.4 h

Q: What about the t½ half life [37] of the same binder?
A: 3.1 h

Q: How did the t½ half life [38] turn out when RLRLARLAL (also called Peptide No 8) [5T4 9-mer peptide 8 RLRLARLAL] was run?
A: 7.2 h

Q: And the t½ half life [39]?
A: 3.1 h

Q: What about the t½ half life [40] of the same binder?
A: 12 min

Q: What does the source list for FSSSAPFLA (also called Peptide No 21) [5T4 9-mer peptide 21 FSSSAPFLA]?
A: t½ half life [41]: 12 min; t½ half life [35]: 18 min

Q: What does the source list for RLDEVRAGA (also called Peptide No 65) [5T4 9-mer peptide 65 RLDEVRAGA]?
A: t½ half life [42]: 12 min; t½ half life [38]: 9.7 h; t½ half life [43]: 12 min
